Assay results from patent US20130065832A1 (WASHINGTON UNIVERSITY, published 2013).

Tests used:
[1] = target: T1, MOR1 (endogenous, mouse spinal cord) (mouse, UniProt P42866 1-398); test: co-IP with anti-MOR1 antibody from spinal cord membrane preparation, immunoblot for GRPR
T1 construct: Untagged native receptor; precipitated with a rabbit anti-MOR1 antibody (Neuromics)

[2] = target: T2, MOR1D (endogenous, mouse spinal cord) (mouse, UniProt P42866-9 1-393); test: co-IP with anti-MOR1D antibody from spinal cord membrane preparation, immunoblot for GRPR
T2 construct: Untagged native receptor in spinal cord membrane preparations and sections; MOR1D is a splice isoform of it; also called spinal MOR1D
T2 sequence (P42866 1-386, tags or fused parts left off): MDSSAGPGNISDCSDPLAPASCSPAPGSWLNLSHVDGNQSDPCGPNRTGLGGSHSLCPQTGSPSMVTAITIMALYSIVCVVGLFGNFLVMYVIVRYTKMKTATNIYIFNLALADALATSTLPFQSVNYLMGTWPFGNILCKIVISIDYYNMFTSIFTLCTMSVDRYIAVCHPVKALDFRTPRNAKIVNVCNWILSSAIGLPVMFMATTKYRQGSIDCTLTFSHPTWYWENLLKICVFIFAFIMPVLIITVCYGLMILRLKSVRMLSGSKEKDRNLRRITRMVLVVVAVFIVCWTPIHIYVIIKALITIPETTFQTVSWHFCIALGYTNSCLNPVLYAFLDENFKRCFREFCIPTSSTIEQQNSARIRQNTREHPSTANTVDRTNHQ

T1 sequence (P42866 whole entry): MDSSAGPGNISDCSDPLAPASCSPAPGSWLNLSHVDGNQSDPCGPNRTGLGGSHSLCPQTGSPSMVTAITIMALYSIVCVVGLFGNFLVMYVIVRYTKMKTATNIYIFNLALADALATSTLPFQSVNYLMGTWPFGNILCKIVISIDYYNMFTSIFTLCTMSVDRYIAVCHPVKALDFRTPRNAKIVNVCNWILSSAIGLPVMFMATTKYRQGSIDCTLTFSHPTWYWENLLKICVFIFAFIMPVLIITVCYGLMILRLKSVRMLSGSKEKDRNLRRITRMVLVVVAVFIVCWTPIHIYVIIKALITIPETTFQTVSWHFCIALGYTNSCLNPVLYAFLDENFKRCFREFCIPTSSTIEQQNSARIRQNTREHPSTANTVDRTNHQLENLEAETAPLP

B1: GRPR (endogenous, mouse spinal cord) (receptor, UniProt P21729 1-384, looked up)
chain: MAPNNCSHLNLDVDPFLSCNDTFNQSLSPPKMDNWFHPGFIYVIPAVYGLIIVIGLIGNITLIKIFCTVKSMRNVPNLFISSLALGDLLLLVTCAPVDASKYLADRWLFGRIGCKLIPFIQLTSVGVSVFTLTALSADRYKAIVRPMDIQASHALMKICLKAALIWIVSMLLAIPEAVFSDLHPFHVKDTNQTFISCAPYPHSNELHPKIHSMASFLVFYVIPLAIISVYYYFIARNLIQSAYNLPVEGNIHVKKQIESRKRLAKTVLVFVGLFAFCWLPNHVIYLYRSYHYSEVDTSMLHFVTSICARLLAFTNSCVNPFALYLLSKSFRKQFNTQLLCCQPGLMNRSHSTGRSTTCMTSFKSTNPSATFSLINRNICHEGYV
notes: Untagged native receptor in spinal cord membrane preparations; also called gastrin-releasing peptide receptor
binding result [1]: no binding | binding result [2]: binds
